According to patent US20150344570A1 (published 2015):

B1: GpH7-B3 variant E333_05P/GpL16-k0 (antibody, human IgG1, kappa)
heavy: not shown
light: DIVMTQSPLSLPVTPGEPASISCQASESLVHSNRNTYLHWYLQKPGQSPQLLIYKVSNRFSGVPDRFSGSGSGTDFTLKISRVEAEDVGVYYCSQNTHVPPTFGQGTKVEIERTVAAPSVFIFPPSDEQLKSGTASVVCLLNNFYPREAKVQWKVDNALQSGNSQESVTEQDSKDSTYSLSSTLTLSKADYEKHKVYACEVTHQGLSSPVTKSFNRGEC
notes: also called Ho Ab E333_05P
B2: GpH7-B3 variant I336_06M/GpL16-k0 (antibody, human IgG1, kappa)
heavy: not shown
light: B1 light
notes: also called Ho Ab I336_06M
B3: GpH7-B3 variant L328_03V/GpL16-k0 (antibody, human IgG1, kappa)
heavy: not shown
light: B1 light
notes: also called Ho Ab L328_03V
B4: GpH7-B3 variant H268_05P/GpL16-k0 (antibody, human IgG1, kappa)
heavy: not shown
light: B1 light
notes: also called Ho Ab H268_05P
B5: GpH7-B3 variant E333_09D/GpL16-k0 (antibody, human IgG1, kappa)
heavy: not shown
light: B1 light
notes: also called Ho Ab E333_09D
B6: GpH7-B3 variant I336_01G/GpL16-k0 (antibody, human IgG1, kappa)
heavy: not shown
light: B1 light
notes: also called Ho Ab I336_01G
B7: GpH7-B3 variant E333_16H/GpL16-k0 (antibody, human IgG1, kappa)
heavy: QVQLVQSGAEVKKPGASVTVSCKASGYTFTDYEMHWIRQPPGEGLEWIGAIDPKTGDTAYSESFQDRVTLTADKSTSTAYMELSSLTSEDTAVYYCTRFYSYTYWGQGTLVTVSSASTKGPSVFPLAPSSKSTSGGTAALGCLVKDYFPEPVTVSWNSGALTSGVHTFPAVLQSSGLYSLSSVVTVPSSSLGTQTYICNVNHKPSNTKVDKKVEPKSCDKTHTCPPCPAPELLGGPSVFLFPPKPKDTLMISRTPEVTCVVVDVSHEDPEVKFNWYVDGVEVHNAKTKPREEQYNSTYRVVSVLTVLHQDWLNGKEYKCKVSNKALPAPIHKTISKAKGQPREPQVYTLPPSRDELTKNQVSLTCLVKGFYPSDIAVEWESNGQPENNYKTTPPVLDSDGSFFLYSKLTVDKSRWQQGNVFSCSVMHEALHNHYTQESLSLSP
light: B1 light
notes: also called Ho Ab E333_16H
B8: GpH7-B3 variant H268_20W/GpL16-k0 (antibody, human IgG1, kappa)
heavy: not shown
light: B1 light
notes: also called Ho Ab H268_20W
B9: GpH7-B3 variant K334_10E/GpL16-k0 (antibody, human IgG1, kappa)
heavy: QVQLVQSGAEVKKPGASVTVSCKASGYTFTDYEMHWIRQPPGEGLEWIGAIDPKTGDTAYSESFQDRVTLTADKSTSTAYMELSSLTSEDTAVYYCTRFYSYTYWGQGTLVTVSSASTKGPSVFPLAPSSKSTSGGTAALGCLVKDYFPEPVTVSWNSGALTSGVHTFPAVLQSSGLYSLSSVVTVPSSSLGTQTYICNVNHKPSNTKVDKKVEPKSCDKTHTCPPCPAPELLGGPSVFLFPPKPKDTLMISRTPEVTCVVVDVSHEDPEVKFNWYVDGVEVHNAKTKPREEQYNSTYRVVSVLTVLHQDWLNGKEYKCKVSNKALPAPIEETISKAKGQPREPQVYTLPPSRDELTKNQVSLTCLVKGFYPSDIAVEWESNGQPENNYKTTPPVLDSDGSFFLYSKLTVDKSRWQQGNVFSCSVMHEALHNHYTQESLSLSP
light: B1 light
notes: also called Ho Ab K334_10E
B10: GpH7-B3 variant L234_03V/GpL16-k0 (antibody, human IgG1, kappa)
heavy: not shown
light: B1 light
notes: also called Ho Ab L234_03V
B11: GpH7-B3 variant K326_14T/GpL16-k0 (antibody, human IgG1, kappa)
heavy: not shown
light: B1 light
notes: also called Ho Ab K326_14T
B12: GpH7-B3 variant E333_14T/GpL16-k0 (antibody, human IgG1, kappa)
heavy: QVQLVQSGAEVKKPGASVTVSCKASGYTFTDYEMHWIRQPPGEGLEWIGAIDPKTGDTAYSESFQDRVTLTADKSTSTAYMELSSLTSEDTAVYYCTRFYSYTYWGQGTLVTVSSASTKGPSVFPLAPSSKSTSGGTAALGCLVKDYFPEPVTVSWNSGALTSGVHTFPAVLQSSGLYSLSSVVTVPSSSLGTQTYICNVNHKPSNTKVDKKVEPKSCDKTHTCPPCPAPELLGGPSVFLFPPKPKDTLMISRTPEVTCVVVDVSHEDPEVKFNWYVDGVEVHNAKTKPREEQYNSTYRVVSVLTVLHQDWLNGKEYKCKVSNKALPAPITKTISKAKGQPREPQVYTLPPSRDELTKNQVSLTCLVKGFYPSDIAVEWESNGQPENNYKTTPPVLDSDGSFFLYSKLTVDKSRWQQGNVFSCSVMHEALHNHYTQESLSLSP
light: B1 light
notes: also called Ho Ab E333_14T
B13: GpH7-B3 variant E333_08L/GpL16-k0 (antibody, human IgG1, kappa)
heavy: not shown
light: B1 light
notes: also called Ho Ab E333_08L
B14: GpH7-B3 variant H268_08L/GpL16-k0 (antibody, human IgG1, kappa)
heavy: not shown
light: B1 light
notes: also called Ho Ab H268_08L
B15: GpH7-B3 variant H268_14T/GpL16-k0 (antibody, human IgG1, kappa)
heavy: not shown
light: B1 light
notes: also called Ho Ab H268_14T
B16: GpH7-B3 variant L234_07I/GpL16-k0 (antibody, human IgG1, kappa)
heavy: not shown
light: B1 light
notes: also called Ho Ab L234_07I
B17: GpH7-B3 variant G236_02A/GpL16-k0 (antibody, human IgG1, kappa)
heavy: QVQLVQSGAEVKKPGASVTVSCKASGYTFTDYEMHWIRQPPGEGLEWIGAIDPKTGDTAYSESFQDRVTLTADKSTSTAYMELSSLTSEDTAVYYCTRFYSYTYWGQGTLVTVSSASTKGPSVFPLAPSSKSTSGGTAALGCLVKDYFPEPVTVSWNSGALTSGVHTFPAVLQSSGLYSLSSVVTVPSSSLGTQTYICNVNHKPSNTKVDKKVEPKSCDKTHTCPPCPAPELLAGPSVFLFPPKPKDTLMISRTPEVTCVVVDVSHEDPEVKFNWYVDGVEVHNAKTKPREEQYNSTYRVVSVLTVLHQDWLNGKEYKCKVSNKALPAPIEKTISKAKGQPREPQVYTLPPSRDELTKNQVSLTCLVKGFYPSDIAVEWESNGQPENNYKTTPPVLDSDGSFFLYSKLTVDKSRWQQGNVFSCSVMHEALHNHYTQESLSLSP
light: B1 light
notes: also called Ho Ab G236_02A
B18: GpH7-B3 variant I336_02A/GpL16-k0 (antibody, human IgG1, kappa)
heavy: not shown
light: B1 light
notes: also called Ho Ab I336_02A
B19: GpH7-B3 variant E333_11K/GpL16-k0 (antibody, human IgG1, kappa)
heavy: not shown
light: B1 light
notes: also called Ho Ab E333_11K
B20: GpH7-B3 variant I332_12R/GpL16-k0 (antibody, human IgG1, kappa)
heavy: not shown
light: B1 light
notes: also called Ho Ab I332_12R
B21: GpH7-B3 variant E333_12R/GpL16-k0 (antibody, human IgG1, kappa)
heavy: not shown
light: B1 light
notes: also called Ho Ab E333_12R
B22: GpH7-B3 variant H268_02A/GpL16-k0 (antibody, human IgG1, kappa)
heavy: not shown
light: B1 light
notes: also called Ho Ab H268_02A
B23: GpH7-B3 variant K334_12R/GpL16-k0 (antibody, human IgG1, kappa)
heavy: not shown
light: B1 light
notes: also called Ho Ab K334_12R
B24: GpH7-B3 variant I336_18N/GpL16-k0 (antibody, human IgG1, kappa)
heavy: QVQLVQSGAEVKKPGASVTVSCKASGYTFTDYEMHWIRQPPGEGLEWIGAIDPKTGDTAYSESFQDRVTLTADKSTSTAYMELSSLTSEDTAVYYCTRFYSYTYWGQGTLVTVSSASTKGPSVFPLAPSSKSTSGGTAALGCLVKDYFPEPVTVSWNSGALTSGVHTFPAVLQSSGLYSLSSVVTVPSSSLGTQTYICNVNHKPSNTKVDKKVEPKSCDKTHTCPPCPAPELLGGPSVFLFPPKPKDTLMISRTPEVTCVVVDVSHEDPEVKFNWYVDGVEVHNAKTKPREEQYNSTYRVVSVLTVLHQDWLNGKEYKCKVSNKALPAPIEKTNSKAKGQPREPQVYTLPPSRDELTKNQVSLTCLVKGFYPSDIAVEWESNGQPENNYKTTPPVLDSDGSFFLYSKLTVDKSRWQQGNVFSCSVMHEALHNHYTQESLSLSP
light: B1 light
notes: also called Ho Ab I336_18N
B25: GpH7-B3 variant H268_12R/GpL16-k0 (antibody, human IgG1, kappa)
heavy: not shown
light: B1 light
notes: also called Ho Ab H268_12R
B26: GpH7-B3 variant I336_04F/GpL16-k0 (antibody, human IgG1, kappa)
heavy: not shown
light: B1 light
notes: also called Ho Ab I336_04F
B27: GpH7-B3 variant K326_18N/GpL16-k0 (antibody, human IgG1, kappa)
heavy: not shown
light: B1 light
notes: also called Ho Ab K326_18N
B28: GpH7-B3 variant L234_10E/GpL16-k0 (antibody, human IgG1, kappa)
heavy: not shown
light: B1 light
notes: also called Ho Ab L234_10E
B29: GpH7-B3 variant E333_13S/GpL16-k0 (antibody, human IgG1, kappa)
heavy: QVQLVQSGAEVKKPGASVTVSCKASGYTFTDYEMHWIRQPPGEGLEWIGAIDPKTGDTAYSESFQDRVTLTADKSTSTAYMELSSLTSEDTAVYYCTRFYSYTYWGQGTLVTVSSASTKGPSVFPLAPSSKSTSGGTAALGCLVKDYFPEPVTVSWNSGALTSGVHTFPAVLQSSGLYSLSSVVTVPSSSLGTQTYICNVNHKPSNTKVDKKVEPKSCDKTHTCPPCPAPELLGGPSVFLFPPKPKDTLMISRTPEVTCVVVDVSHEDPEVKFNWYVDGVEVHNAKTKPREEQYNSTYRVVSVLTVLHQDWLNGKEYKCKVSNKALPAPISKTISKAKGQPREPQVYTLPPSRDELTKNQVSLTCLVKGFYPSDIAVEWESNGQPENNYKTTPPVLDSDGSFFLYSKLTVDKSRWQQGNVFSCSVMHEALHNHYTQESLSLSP
light: B1 light
notes: also called Ho Ab E333_13S
B30: GpH7-B3 variant K326_16H/GpL16-k0 (antibody, human IgG1, kappa)
heavy: not shown
light: B1 light
notes: also called Ho Ab K326_16H
B31: GpH7-B3 variant G236_20W/GpL16-k0 (antibody, human IgG1, kappa)
heavy: not shown
light: B1 light
notes: also called Ho Ab G236_20W
B32: GpH7-B3 variant L234_04F/GpL16-k0 (antibody, human IgG1, kappa)
heavy: not shown
light: B1 light
notes: also called Ho Ab L234_04F
B33: GpH7-B3 variant K334_20W/GpL16-k0 (antibody, human IgG1, kappa)
heavy: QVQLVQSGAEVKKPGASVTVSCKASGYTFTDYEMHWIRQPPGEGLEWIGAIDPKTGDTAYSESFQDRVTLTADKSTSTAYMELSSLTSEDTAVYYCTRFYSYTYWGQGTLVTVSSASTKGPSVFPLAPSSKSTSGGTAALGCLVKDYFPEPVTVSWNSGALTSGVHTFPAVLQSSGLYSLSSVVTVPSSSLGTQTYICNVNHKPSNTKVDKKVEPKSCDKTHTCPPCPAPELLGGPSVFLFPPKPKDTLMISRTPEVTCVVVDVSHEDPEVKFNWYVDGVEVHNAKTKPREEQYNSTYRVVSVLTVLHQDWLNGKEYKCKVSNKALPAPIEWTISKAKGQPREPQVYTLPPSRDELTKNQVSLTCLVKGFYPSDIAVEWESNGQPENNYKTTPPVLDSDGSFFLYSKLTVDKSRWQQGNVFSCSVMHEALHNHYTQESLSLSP
light: B1 light
notes: also called Ho Ab K334_20W
B34: GpH7-B3 variant L234_15Y/GpL16-k0 (antibody, human IgG1, kappa)
heavy: not shown
light: B1 light
notes: also called Ho Ab L234_15Y
B35: GpH7-B3 variant E333_15Y/GpL16-k0 (antibody, human IgG1, kappa)
heavy: not shown
light: B1 light
notes: also called Ho Ab E333_15Y
B36: GpH7-B3 variant K334_06M/GpL16-k0 (antibody, human IgG1, kappa)
heavy: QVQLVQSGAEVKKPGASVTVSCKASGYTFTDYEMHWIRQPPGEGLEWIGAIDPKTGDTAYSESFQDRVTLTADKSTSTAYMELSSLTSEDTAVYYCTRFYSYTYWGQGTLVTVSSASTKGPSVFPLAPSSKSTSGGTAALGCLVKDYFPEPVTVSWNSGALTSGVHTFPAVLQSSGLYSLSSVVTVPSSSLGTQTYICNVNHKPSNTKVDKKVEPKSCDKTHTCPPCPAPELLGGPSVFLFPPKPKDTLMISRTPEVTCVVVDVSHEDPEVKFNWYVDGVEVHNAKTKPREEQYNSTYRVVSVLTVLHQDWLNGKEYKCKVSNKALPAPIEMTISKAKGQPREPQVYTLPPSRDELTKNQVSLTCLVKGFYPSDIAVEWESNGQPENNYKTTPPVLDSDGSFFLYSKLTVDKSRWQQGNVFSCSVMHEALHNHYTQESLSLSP
light: B1 light
notes: also called Ho Ab K334_06M
B37: GpH7-B3 variant K326_15Y/GpL16-k0 (antibody, human IgG1, kappa)
heavy: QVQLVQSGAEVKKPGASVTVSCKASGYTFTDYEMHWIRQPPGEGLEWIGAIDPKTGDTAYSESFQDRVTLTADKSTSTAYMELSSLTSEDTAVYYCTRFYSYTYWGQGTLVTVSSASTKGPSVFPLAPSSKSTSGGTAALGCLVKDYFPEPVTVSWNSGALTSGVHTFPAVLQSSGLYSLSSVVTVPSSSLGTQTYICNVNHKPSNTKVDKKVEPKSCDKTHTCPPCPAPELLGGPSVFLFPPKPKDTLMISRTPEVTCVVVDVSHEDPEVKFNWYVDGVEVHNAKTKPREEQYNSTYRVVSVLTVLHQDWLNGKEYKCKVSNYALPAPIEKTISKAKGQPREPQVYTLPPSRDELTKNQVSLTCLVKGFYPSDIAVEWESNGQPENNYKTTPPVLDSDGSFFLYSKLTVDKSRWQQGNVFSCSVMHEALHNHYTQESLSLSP
light: B1 light
notes: also called Ho Ab K326_15Y
B38: GpH7-B3 variant H268_07I/GpL16-k0 (antibody, human IgG1, kappa)
heavy: not shown
light: B1 light
notes: also called Ho Ab H268_07I
B39: GpH7-B3 variant L234_06M/GpL16-k0 (antibody, human IgG1, kappa)
heavy: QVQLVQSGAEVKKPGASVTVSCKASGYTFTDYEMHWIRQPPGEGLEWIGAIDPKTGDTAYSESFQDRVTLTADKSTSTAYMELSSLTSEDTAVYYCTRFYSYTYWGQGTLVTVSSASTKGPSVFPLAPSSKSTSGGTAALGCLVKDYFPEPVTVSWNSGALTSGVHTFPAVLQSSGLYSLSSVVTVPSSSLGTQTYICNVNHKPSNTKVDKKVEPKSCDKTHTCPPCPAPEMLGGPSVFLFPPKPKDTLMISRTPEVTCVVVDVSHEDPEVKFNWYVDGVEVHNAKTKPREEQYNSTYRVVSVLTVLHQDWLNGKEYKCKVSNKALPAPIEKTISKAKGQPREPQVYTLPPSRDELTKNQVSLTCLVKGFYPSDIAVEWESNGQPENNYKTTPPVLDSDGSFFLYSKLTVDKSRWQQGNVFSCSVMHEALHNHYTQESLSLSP
light: B1 light
notes: also called Ho Ab L234_06M
B40: GpH7-B3 variant I336_03V/GpL16-k0 (antibody, human IgG1, kappa)
heavy: not shown
light: B1 light
notes: also called Ho Ab I336_03V
B41: GpH7-B3 variant I336_10E/GpL16-k0 (antibody, human IgG1, kappa)
heavy: not shown
light: B1 light
notes: also called Ho Ab I336_10E
B42: GpH7-B3 variant E333_06M/GpL16-k0 (antibody, human IgG1, kappa)
heavy: not shown
light: B1 light
notes: also called Ho Ab E333_06M
B43: GpH7-B3 variant K326_12R/GpL16-k0 (antibody, human IgG1, kappa)
heavy: not shown
light: B1 light
notes: also called Ho Ab K326_12R
B44: GpH7-B3 variant E333_07I/GpL16-k0 (antibody, human IgG1, kappa)
heavy: not shown
light: B1 light
notes: also called Ho Ab E333_07I

Biological target: T1, FcγRIa (human, UniProt P12314 16-292)
T1 construct: extracellular domain; also called FcgRI; 1a
Assay: SPR (Biacore); Ho Ab relative to HoCon Ab = 100
Protocol: Analysis of interaction between objective antibody and the FcγR was carried out using Biacore T100 (GE Healthcare). HBS-EP+ (GE Healthcare) was used as the running buffer, and the measurement temperature was set to 25° C. Chips produced by immobilizing the antigen peptide by the amine coupling method to a Series S Sencor Chip CM5 (GE Healthcare), or alternatively, chips produced by allowing preliminarily biotinylated antigen peptides to interact with and immobilize onto a Series S Sensor Chip SA (certified) (GE Healthcare) were used. Antibodies of interest were captured onto an antigen peptide-immobilized chip, and allowed to interact to each FcγR diluted with running buffer. To regenerate and repeatedly use the chip, the antibodies captured on the chip were washed off by reacting 10 mM glycine-HCl, pH 1.5.

T1 sequence (P12314 16-292): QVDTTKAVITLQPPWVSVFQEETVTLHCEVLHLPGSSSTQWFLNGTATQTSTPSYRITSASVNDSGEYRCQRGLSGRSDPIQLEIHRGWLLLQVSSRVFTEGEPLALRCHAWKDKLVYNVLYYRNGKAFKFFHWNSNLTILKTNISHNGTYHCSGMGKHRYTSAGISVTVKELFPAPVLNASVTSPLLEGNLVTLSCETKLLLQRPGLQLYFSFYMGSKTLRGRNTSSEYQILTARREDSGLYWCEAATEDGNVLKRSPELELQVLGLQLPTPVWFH

| Binder | Ho/Con_1a |
| --- | --- |
| B1 | 99.2 % of control |
| B2 | 104 % of control |
| B3 | 99.2 % of control |
| B4 | 108 % of control |
| B5 | 103 % of control |
| B6 | 104 % of control |
| B7 | 99.1 % of control |
| B8 | 106 % of control |
| B9 | 107 % of control |
| B10 | 98.2 % of control |
| B11 | 103 % of control |
| B12 | 98.7 % of control |
| B13 | 99 % of control |
| B14 | 105 % of control |
| B15 | 109 % of control |
| B16 | 99.5 % of control |
| B17 | 92.4 % of control |
| B18 | 103 % of control |
| B19 | 95.8 % of control |
| B20 | 93.2 % of control |
| B21 | 94.2 % of control |
| B22 | 106 % of control |

| Binder | Ho/Con_1a |
| --- | --- |
| B23 | 102 % of control |
| B24 | 104 % of control |
| B25 | 105 % of control |
| B26 | 104 % of control |
| B27 | 102 % of control |
| B28 | 79.6 % of control |
| B29 | 101 % of control |
| B30 | 101 % of control |
| B31 | 104 % of control |
| B32 | 93.5 % of control |
| B33 | 104 % of control |
| B34 | 98.9 % of control |
| B35 | 100 % of control |
| B36 | 104 % of control |
| B37 | 101 % of control |
| B38 | 106 % of control |
| B39 | 96.5 % of control |
| B40 | 105 % of control |
| B41 | 107 % of control |
| B42 | 99.5 % of control |
| B43 | 100 % of control |
| B44 | 99.9 % of control |
